According to US20250019439A1 (Adimab, published 2025):

Legend:
[1] = molecular target: T1, ADI-50024; test: SPR Carterra, yeast anti-ID
T1 construct: anti-CD3 antibody made in CHO cells, captured by anti-human Fc
Outline: (§1)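 Anti-CD3 IgGs (100 nM) captured on goat anti-human Fc amine-coupled HC30M chip; anti-idiotype antibodies flowed as analytes, dissociation 300 s, HBSTE running buffer, 25° C. Double-referenced sensorgrams fitted to 1:1 model; glycine pH 1.7 regeneration.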

[2] = molecular target: T2, ADI-70326; test: SPR Carterra, yeast anti-ID
T2 construct: anti-CD3 antibody made in CHO cells, captured by anti-human Fc
Outline: as §1

[3] = molecular target: T3, ADI-70327; test: SPR Carterra, yeast anti-ID
T3 construct: anti-CD3 antibody made in CHO cells, captured by anti-human Fc
Outline: as §1

[4] = molecular target: T4, ADI-70330; test: SPR Carterra, yeast anti-ID
T4 construct: anti-CD3 antibody made in CHO cells, captured by anti-human Fc
Outline: as §1

[5] = molecular target: T5, ADI-67445; test: SPR Carterra, yeast anti-ID
T5 construct: anti-CD3 antibody made in CHO cells, captured by anti-human Fc
Outline: as §1

[6] = molecular target: T6, ADI-26909; test: SPR Carterra, yeast anti-ID
T6 construct: anti-CD3 antibody made in CHO cells, captured by anti-human Fc
Outline: as §1

[7] = molecular target: T7, ADI-26915; test: SPR Carterra, yeast anti-ID
T7 construct: anti-CD3 antibody made in CHO cells, captured by anti-human Fc
Outline: as §1

[8] = molecular target: T8, ADI-48587; test: SPR Carterra, yeast anti-ID
T8 construct: pH-dependent anti-CD3 antibody made in CHO cells
Outline: as §1

[9] = molecular target: T9, ADI-48650; test: SPR Carterra, yeast anti-ID
T9 construct: pH-dependent anti-CD3 antibody made in CHO cells
Outline: as §1

[10] = molecular target: T10, CTL-62223; test: SPR Carterra, yeast anti-ID
T10 construct: also called mosunetuzumab
Outline: as §1

[11] = molecular target: T11, CTL-62227; test: SPR Carterra, yeast anti-ID
T11 construct: also called odronextamab
Outline: as §1

[12] = molecular target: T12, CTL-62228; test: SPR Carterra, yeast anti-ID
T12 construct: also called glofitamab
Outline: as §1

[13] = molecular target: T13, CTL-62240; test: SPR Carterra, yeast anti-ID
T13 construct: also called ONO-4685
Outline: as §1

[14] = molecular target: T14, ADI-67450; test: SPR Carterra avidity, yeast anti-ID
T14 construct: anti-CD3 antibody made in CHO cells, captured by anti-human Fc
Outline: as §1

[15] = molecular target: T15, ADI-67447; test: SPR Carterra avidity, yeast anti-ID
T15 construct: anti-CD3 antibody made in CHO cells, captured by anti-human Fc
Outline: as §1

[16] = molecular target: T16, ADI-26913 IgG; test: SPR Carterra avidity, yeast anti-ID
T16 construct: anti-CD3 IgG
Outline: as §1

[17] = molecular target: T17, ADI-26919; test: SPR Carterra avidity, yeast anti-ID
T17 construct: anti-CD3 antibody made in CHO cells, captured by anti-human Fc
Outline: as §1

[18] = molecular target: T18, ADI-26920 IgG; test: SPR Carterra avidity, yeast anti-ID
T18 construct: anti-CD3 IgG
Outline: as §1

[19] = molecular target: T19, ADI-26921 IgG; test: SPR Carterra avidity, yeast anti-ID
T19 construct: anti-CD3 IgG
Outline: as §1

[20] = molecular target: T20, ADI-26916 IgG; test: SPR Carterra avidity, yeast anti-ID
T20 construct: anti-CD3 IgG
Outline: as §1

[21] = molecular target: T21, ADI-26912; test: SPR Carterra avidity, yeast anti-ID
T21 construct: anti-CD3 antibody made in CHO cells, captured by anti-human Fc
Outline: as §1

[22] = molecular target: T22, ADI-26924; test: SPR Carterra avidity, yeast anti-ID
T22 construct: anti-CD3 antibody made in CHO cells, captured by anti-human Fc
Outline: as §1

[23] = molecular target: T23, ADI-26943; test: SPR Carterra avidity, yeast anti-ID
T23 construct: anti-CD3 antibody made in CHO cells, captured by anti-human Fc
Outline: as §1

[24] = molecular target: T24, ADI-48576; test: SPR Carterra avidity, yeast anti-ID
T24 construct: pH-dependent anti-CD3 antibody made in CHO cells
Outline: as §1

[25] = molecular target: T25, ADI-48592; test: SPR Carterra avidity, yeast anti-ID
T25 construct: pH-dependent anti-CD3 antibody made in CHO cells
Outline: as §1

[26] = molecular target: T26, ADI-74965; test: SPR Carterra avidity, yeast anti-ID
T26 construct: pH-dependent anti-CD3 antibody made in CHO cells
Outline: as §1

[27] = molecular target: T27, ADI-74966; test: SPR Carterra avidity, yeast anti-ID
T27 construct: pH-dependent anti-CD3 antibody made in CHO cells
Outline: as §1

[28] = molecular target: T28, ADI-74967; test: SPR Carterra avidity, yeast anti-ID
T28 construct: pH-dependent anti-CD3 antibody made in CHO cells
Outline: as §1

[29] = molecular target: T29, ADI-74968; test: SPR Carterra avidity, yeast anti-ID
T29 construct: pH-dependent anti-CD3 antibody made in CHO cells
Outline: as §1

[30] = molecular target: T30, ADI-76358; test: SPR Carterra avidity, yeast anti-ID
T30 construct: anti-CD3 antibody made in CHO cells, captured by anti-human Fc
Outline: as §1

[31] = molecular target: T31, ADI-76359; test: SPR Carterra avidity, yeast anti-ID
T31 construct: anti-CD3 antibody made in CHO cells, captured by anti-human Fc
Outline: as §1

[32] = molecular target: T32, ADI-76360; test: SPR Carterra avidity, yeast anti-ID
T32 construct: anti-CD3 antibody made in CHO cells, captured by anti-human Fc
Outline: as §1

[33] = molecular target: T33, ADI-76361; test: SPR Carterra avidity, yeast anti-ID
T33 construct: anti-CD3 antibody made in CHO cells, captured by anti-human Fc
Outline: as §1

[34] = molecular target: T34, ADI-76362; test: SPR Carterra avidity, yeast anti-ID
T34 construct: anti-CD3 antibody made in CHO cells, captured by anti-human Fc
Outline: as §1

[35] = molecular target: T35, ADI-22523 Fab; test: BLI; tip anti-ID IgG, solution ADI-22523 Fab
T35 construct: anti-CD3 Fab by papain digestion of the IgG
Outline: (§2)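 Bio-layer interferometry with anti-ID IgG loaded on AHC tips. KD (koff/kon) from 1:1 binding model fit; avid format.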

[36] = molecular target: T36, ADI-22523 IgG; test: BLI; tip anti-ID IgG, solution ADI-22523 IgG
T36 construct: anti-CD3 IgG
Outline: as §2

[37] = molecular target: T37, ADI-26906 IgG; test: SPR Carterra avidity, yeast anti-ID, *koff limit
T37 construct: anti-CD3 IgG
Outline: as §1

[38] = molecular target: T38, ADI-76357; test: SPR Carterra avidity, yeast anti-ID, *koff limit
T38 construct: anti-CD3 antibody made in CHO cells, captured by anti-human Fc
Outline: as §1

[39] = molecular target: T21, ADI-26912; test: SPR Carterra, yeast anti-ID
Outline: as §1

[40] = molecular target: T24, ADI-48576; test: SPR Carterra, yeast anti-ID
Outline: as §1

[41] = molecular target: T25, ADI-48592; test: SPR Carterra, yeast anti-ID
Outline: as §1

[42] = molecular target: T26, ADI-74965; test: SPR Carterra, yeast anti-ID
Outline: as §1

[43] = molecular target: T1, ADI-50024; test: SPR Carterra avidity, yeast anti-ID
Outline: as §1

[44] = molecular target: T2, ADI-70326; test: SPR Carterra avidity, yeast anti-ID
Outline: as §1

[45] = molecular target: T3, ADI-70327; test: SPR Carterra avidity, yeast anti-ID
Outline: as §1

[46] = molecular target: T4, ADI-70330; test: SPR Carterra avidity, yeast anti-ID
Outline: as §1

[47] = molecular target: T37, ADI-26906 IgG; test: SPR Carterra avidity, yeast anti-ID
Outline: as §1

[48] = molecular target: T8, ADI-48587; test: SPR Carterra avidity, yeast anti-ID
Outline: as §1

[49] = molecular target: T38, ADI-76357; test: SPR Carterra avidity, yeast anti-ID
Outline: as §1

[50] = molecular target: T10, CTL-62223; test: SPR Carterra avidity, yeast anti-ID
Outline: as §1

[51] = molecular target: T5, ADI-67445; test: SPR Carterra avidity, yeast anti-ID, *koff limit
Outline: as §1

[52] = molecular target: T15, ADI-67447; test: SPR Carterra avidity, yeast anti-ID, *koff limit
Outline: as §1

[53] = molecular target: T6, ADI-26909; test: SPR Carterra avidity, yeast anti-ID, *koff limit
Outline: as §1

[54] = molecular target: T18, ADI-26920 IgG; test: SPR Carterra avidity, yeast anti-ID, *koff limit
Outline: as §1

[55] = molecular target: T19, ADI-26921 IgG; test: SPR Carterra avidity, yeast anti-ID, *koff limit
Outline: as §1

[56] = molecular target: T22, ADI-26924; test: SPR Carterra avidity, yeast anti-ID, *koff limit
Outline: as §1

[57] = molecular target: T23, ADI-26943; test: SPR Carterra avidity, yeast anti-ID, *koff limit
Outline: as §1

[58] = molecular target: T31, ADI-76359; test: SPR Carterra avidity, yeast anti-ID, *koff limit
Outline: as §1

[59] = molecular target: T33, ADI-76361; test: SPR Carterra avidity, yeast anti-ID, *koff limit
Outline: as §1

[60] = molecular target: T34, ADI-76362; test: SPR Carterra avidity, yeast anti-ID, *koff limit
Outline: as §1

T1 sequence (VH, as listed by the source limits assumed, chain 1 of 2): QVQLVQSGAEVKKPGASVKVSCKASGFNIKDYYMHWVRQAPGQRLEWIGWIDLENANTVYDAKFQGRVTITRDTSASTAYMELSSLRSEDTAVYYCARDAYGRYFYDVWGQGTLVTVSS
T1 sequence (VL, as listed by the source limits assumed, chain 2 of 2): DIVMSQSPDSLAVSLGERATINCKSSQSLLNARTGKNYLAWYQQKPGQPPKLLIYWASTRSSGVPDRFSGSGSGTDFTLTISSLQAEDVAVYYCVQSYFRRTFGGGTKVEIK
T19 sequence (VH, as listed by the source limits assumed, chain 1 of 2): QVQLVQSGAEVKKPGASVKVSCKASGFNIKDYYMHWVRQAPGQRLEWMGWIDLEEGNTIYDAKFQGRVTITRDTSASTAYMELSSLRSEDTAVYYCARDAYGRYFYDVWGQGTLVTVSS
T19 sequence (VL, as listed by the source limits assumed, chain 2 of 2): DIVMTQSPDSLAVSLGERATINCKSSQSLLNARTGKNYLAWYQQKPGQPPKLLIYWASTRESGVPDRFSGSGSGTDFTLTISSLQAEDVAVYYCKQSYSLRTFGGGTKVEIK
T24 sequence (VH, as listed by the source, chain 1 of 2): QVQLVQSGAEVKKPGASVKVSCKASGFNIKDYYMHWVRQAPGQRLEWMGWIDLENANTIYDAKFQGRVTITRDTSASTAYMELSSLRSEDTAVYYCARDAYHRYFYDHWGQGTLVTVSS
T24 sequence (VL, as listed by the source, chain 2 of 2): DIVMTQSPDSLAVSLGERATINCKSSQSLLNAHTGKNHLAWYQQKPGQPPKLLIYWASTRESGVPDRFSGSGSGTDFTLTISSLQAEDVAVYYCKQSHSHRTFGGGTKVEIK
T7 sequence (VH, as listed by the source, chain 1 of 2): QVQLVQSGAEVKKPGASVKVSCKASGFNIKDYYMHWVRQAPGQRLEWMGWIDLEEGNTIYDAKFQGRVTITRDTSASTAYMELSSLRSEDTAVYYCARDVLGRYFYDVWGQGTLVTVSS
T7 sequence (VL, as listed by the source, chain 2 of 2): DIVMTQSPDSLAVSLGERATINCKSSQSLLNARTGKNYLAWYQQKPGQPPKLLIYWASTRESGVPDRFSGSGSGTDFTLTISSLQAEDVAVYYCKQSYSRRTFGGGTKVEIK
T14 sequence (VH, as listed by the source limits assumed, chain 1 of 2): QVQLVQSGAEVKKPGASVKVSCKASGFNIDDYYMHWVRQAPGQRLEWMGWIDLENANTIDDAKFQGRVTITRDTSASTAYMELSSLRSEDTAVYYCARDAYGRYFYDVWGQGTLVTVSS
T11 sequence (VH, as listed by the source, chain 1 of 2): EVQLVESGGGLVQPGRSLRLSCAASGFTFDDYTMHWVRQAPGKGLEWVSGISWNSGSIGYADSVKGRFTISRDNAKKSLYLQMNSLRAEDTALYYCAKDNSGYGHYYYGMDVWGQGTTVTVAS
T11 sequence (VL, as listed by the source, chain 2 of 2): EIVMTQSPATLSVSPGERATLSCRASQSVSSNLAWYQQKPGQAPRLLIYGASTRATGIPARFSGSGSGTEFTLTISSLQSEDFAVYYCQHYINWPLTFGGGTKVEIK
T34 sequence (VH, as listed by the source, chain 1 of 2): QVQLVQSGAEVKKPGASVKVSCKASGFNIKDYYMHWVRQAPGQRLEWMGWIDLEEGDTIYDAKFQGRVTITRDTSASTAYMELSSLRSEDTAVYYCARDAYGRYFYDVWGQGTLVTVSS
T6 sequence (VH, as listed by the source limits assumed, chain 1 of 2): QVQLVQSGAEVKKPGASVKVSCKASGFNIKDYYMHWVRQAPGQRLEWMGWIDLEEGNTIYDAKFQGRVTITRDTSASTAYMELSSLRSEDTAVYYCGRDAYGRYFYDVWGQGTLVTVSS
T25 sequence (VH, as listed by the source, chain 1 of 2): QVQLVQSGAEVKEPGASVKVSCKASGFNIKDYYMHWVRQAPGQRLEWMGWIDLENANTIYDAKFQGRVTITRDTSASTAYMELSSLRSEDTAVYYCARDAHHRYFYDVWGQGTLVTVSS
T25 sequence (VL, as listed by the source, chain 2 of 2): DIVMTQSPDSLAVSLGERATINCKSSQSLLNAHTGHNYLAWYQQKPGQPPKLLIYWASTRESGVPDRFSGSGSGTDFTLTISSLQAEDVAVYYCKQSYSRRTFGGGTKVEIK
T32 sequence (VH, as listed by the source, chain 1 of 2): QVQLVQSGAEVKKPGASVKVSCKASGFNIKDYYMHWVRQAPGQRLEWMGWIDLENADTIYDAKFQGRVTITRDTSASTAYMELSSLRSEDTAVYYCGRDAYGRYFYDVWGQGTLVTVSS
T30 sequence (VH, as listed by the source, chain 1 of 2): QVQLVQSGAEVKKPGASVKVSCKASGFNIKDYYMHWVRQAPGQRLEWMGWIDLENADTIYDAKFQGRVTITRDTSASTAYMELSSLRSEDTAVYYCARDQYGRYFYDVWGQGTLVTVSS
T23 sequence (VH, as listed by the source, chain 1 of 2): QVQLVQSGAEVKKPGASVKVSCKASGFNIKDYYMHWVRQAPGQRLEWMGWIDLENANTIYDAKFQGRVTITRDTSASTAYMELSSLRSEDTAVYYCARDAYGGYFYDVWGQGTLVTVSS
T23 sequence (VL, as listed by the source, chain 2 of 2): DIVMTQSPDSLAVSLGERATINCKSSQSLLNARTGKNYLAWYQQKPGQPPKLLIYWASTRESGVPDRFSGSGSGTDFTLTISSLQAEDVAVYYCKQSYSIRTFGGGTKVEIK
T35 sequence (VH, as listed by the source limits assumed, chain 1 of 2): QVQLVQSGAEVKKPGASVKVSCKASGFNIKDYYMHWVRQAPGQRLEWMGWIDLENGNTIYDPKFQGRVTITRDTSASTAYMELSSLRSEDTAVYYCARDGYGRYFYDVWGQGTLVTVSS
T35 sequence (VL, as listed by the source limits assumed, chain 2 of 2): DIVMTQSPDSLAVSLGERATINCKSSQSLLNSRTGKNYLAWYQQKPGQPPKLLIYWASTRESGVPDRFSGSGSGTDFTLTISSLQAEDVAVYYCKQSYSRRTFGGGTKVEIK
T37 sequence (VH, as listed by the source limits assumed, chain 1 of 2): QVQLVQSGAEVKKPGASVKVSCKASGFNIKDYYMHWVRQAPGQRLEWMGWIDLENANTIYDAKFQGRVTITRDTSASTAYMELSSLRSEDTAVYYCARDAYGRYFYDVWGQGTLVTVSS
T20 sequence (VH, as listed by the source, chain 1 of 2): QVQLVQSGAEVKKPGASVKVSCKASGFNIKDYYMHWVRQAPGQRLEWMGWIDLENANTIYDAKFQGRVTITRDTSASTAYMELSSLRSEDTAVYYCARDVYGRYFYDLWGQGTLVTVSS
T13 sequence (VH, as listed by the source, chain 1 of 2): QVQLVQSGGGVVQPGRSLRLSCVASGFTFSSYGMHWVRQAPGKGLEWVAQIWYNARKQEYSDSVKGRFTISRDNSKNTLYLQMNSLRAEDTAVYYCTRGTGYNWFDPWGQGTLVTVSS
T13 sequence (VL, as listed by the source, chain 2 of 2): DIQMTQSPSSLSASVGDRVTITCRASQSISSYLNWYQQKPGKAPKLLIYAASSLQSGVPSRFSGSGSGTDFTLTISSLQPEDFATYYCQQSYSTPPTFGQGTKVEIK

B1: ADI-34143 (antibody, V domains shown)
VH: EVQLLESGGGLVQPGGSLRLSCAASGFTFSSYAMSWVRQAPGKGLEWVSTISGSGGSTYYADSVKGRFTISRDNSKNTLYLQMNSLRAEDTAVYYCARLGGRRGSGSSYYYYYGMDVWGQGTTVTVSS
VL: not shown
notes: anti-ID IgG
Question: What does the source list for B1?
Answer: binding result [1]: no binding (tested: up to 200 nM); binding result [2]: no binding (tested: up to 200 nM); binding result [3]: no binding (tested: up to 200 nM); binding result [4]: no binding (tested: up to 200 nM); binding result [5]: no binding (tested: up to 200 nM); binding result [6]: no binding (tested: up to 200 nM); binding result [7]: no binding (tested: up to 200 nM); binding result [8]: no binding (tested: up to 200 nM); binding result [9]: no binding (tested: up to 200 nM); binding result [10]: no binding (tested: up to 200 nM); binding result [11]: no binding (tested: up to 200 nM); binding result [12]: no binding (tested: up to 200 nM); binding result [13]: no binding (tested: up to 200 nM); binding result [14]: binds; Kd [15]: 33 nM; Kd [16]: 23 nM; Kd [17]: 24 nM; Kd [18]: 35 nM; binding result [19]: binds; Kd [20]: 43 nM; binding result [21]: binds; Kd [22]: 20 nM; Kd [23]: 11 nM; binding result [24]: binds; binding result [25]: binds; binding result [26]: binds; Kd [27]: 36 nM; binding result [28]: binds; Kd [29]: 130 nM; binding result [30]: binds; Kd [31]: 20 nM; binding result [32]: binds; binding result [33]: binds; binding result [34]: binds; Kd [35]: 18.2 nM; Kd [36]: 2.98 nM; Kd [37]: 13 nM; Kd [38]: 6.6 nM

B2: ADI-34131 (antibody, V domains shown)
VH: QVQLVQSGAEVKKPGSSVKVSCKASGGTFSSYAISWVRQAPGQGLEWMGGIIPIFGTANYAQKFQGRVTITADESTSTAYMELSSLRSEDTAVYYCARGAPNYYGSGGYDDGWFDPWGQGTLVTVSS
VL: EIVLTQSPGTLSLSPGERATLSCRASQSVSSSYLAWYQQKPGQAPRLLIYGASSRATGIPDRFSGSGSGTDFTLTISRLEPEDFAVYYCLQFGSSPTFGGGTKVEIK
notes: anti-ID IgG
Question: What does the source list for B2?
Answer: binding result [39]: no binding (tested: up to 200 nM); binding result [7]: no binding (tested: up to 200 nM); binding result [40]: no binding (tested: up to 200 nM); binding result [41]: no binding (tested: up to 200 nM); binding result [9]: no binding (tested: up to 200 nM); binding result [42]: no binding (tested: up to 200 nM); binding result [11]: no binding (tested: up to 200 nM); binding result [12]: no binding (tested: up to 200 nM); binding result [13]: no binding (tested: up to 200 nM); Kd [43]: 18 nM; Kd [44]: 130 nM; Kd [45]: 130 nM; Kd [46]: 80 nM; Kd [47]: 27 nM; Kd [14]: 69 nM; Kd [16]: 20 nM; Kd [17]: 25 nM; Kd [20]: 84 nM; binding result [48]: binds; Kd [27]: 31 nM; Kd [28]: 22 nM; binding result [29]: binds; Kd [49]: 35 nM; Kd [30]: 91 nM; Kd [32]: 43 nM; Kd [50]: 54 nM; Kd [35]: 13.5 nM; Kd [36]: 0.73 nM; Kd [51]: 25 nM; Kd [52]: 13 nM; Kd [53]: 13 nM; Kd [54]: 11 nM; Kd [55]: 18 nM; Kd [56]: 17 nM; Kd [57]: 22 nM; Kd [58]: 8.7 nM; Kd [59]: 19 nM; Kd [60]: 16 nM
